Laboratory results: the supplement of paper PMC10567573
± gives the standard deviation.

Experiment: protein stability index of a GFP-peptide fusion (GPS, HEK-293T) (PSI 1-6); higher = more stable
[1] = treatment: DMSO, c terminus: a fixed tail appended
[2] = treatment: MLN4924 1 uM, 8 h, c terminus: a fixed tail appended
[3] = treatment: DMSO, c terminus: native
[4] = treatment: MLN4924 1 uM, 8 h, c terminus: native
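Also: 24-mer peptide tiles fused after GFP, lentivirally expressed, FACS-sorted into six equal bins by GFP/DsRed ratio, decoded by Illumina sequencing, PSI is the read-weighted mean bin number.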

Row | Sequence | protein stability index [1] | protein stability index [2] | protein stability index [3] | protein stability index [4]
1 | LQNKVPLLGSSTACIVVLDRTSHR [PPTC7] | 2.14 ± 0.16 | 2.32 ± 0.33 | – | –
2 | KVLGNRWAEIAKMLPGRTDNAVKN [MYBL2] | 2.91 ± 0.45 | 2.98 ± 0.24 | – | –
3 | WTVWSGNRASLYSFPEPEAAQPMT [PRAME] | 2.45 ± 0.034 | 2.57 ± 0.25 | – | –
4 | RKGCLRFQLPERGSRLCLYEDGTE [DFFB] | 3.34 ± 0.39 | 3.47 ± 0.21 | – | –
5 | YLEGFDPFNQSTFNNVVEQNFKNR [DLC1] | 2.89 ± 0.26 | 3.15 ± 0.39 | – | –
6 | YKDFLWFFSKRFKSAAMLAVFAVS [SOAT1] | 2.25 ± 0.49 | 2.4 ± 0.53 | – | –
7 | PFDQSGLGAEESLGLLDDYLEVAK [ATF4] | 4.28 ± 0.28 | 4.62 ± 0.24 | – | –
8 | YFTWDEVAQRSGCEERWLVIDRKV [FADS1] | 2.65 ± 0.17 | 2.82 ± 0.27 | – | –
9 | DGIDRWIKEIDEHAPGVPRILVGN [RAB40C] | 3.81 ± 0.19 | 3.59 ± 0.26 | – | –
10 | NLPFWVKEKANSLKNEIQEVEELD [SPATS1] | 4.7 ± 0.32 | 4.82 ± 0.083 | – | –
11 | LSSVEAYNIRTDSWTTVTSMTTPR [KLHL12] | 2.79 ± 0.31 | 3.23 ± 0.37 | – | –
12 | AGGATAWGDLLGEDSLAALSSVPS [SNAP91] | 3.99 ± 0.25 | 3.96 ± 0.11 | – | –
13 | DFLETPELTSTMLVPASWWILNN [NECAB1] | – | – | 2.21 ± 0.35 | 2.18 ± 0.25
14 | MTLAYDNGINLFDTAEVYAAGKAE [KCNAB2] | 3.54 ± 0.29 | 3.8 ± 0.34 | – | –
15 | VCDSCYDSIKDEDRTSLATFHEGK [WDFY1] | 4.62 ± 0.28 | 4.83 ± 0.26 | – | –
16 | ECGKTFIYNSHLVVHQRVHSGEKP [ZNF232] | 2.96 ± 0.37 | 2.9 ± 0.49 | – | –
17 | PLAMNYLDRFLSLEPVKKSRLQLL [CCND1] | 2.23 ± 0.12 | 2.27 ± 0.14 | – | –
18 | AFLELPHGSGGSGYPAAPPAVPFA [TBX6] | 2.55 ± 0.15 | 2.69 ± 0.39 | – | –
19 | QLVRYSADGLLQLGPLGSTAFLPD [GALNT9] | 2.33 ± 0.27 | 2.67 ± 0.3 | – | –
20 | HYGNIMYDRRVIRGNTYALQTGPL [RSPH3] | 2.33 ± 0.1 | 2.13 ± 0.32 | – | –
21 | EHQRSHTGERPHQCIECGKSFNRH [ZSCAN9] | 3.88 ± 0.41 | 4.17 ± 0.41 | – | –
22 | SSSSSSSSSSGPGHGEPDVLKDEL [TMEM40] | 5.44 ± 0.15 | 5.42 ± 0.21 | – | –
23 | FIYTAKLSLNMDNLQDTLEAASFL [KLHL13] | 2.65 ± 0.54 | 2.96 ± 0.48 | – | –

Row | Sequence | protein stability index [1] | protein stability index [2] | protein stability index [3] | protein stability index [4]
24 | KDIAGEFKEQLQALIPYVLNPSKL [ATL3] | 2.19 ± 0.11 | 2.32 ± 0.18 | – | –
25 | NQMDKARRHPQGAWKELDRNYLNY [CHGB] | 2.77 ± 0.32 | 2.84 ± 0.19 | – | –
26 | ETAGQKPLSVHRPPTSGCLGPVPR [TSPAN10] | 4.25 ± 0.46 | 4.22 ± 0.19 | – | –
27 | EDQPINLCDKLPPATALGTASYPS [NOL4L] | 4.6 ± 0.19 | 4.62 ± 0.084 | – | –
28 | HVMGLYPDLLPTDYRKQLQYPNPL [VPS39] | 2.34 ± 0.28 | 2.59 ± 0.24 | – | –
29 | ESKKNRVEINDLDPEVFKEMMRFI [SPOPL] | 1.55 ± 0.31 | – | – | –
30 | QRTVGQLMELCRLYHRADVEKVLR [EDARADD] | 2.38 ± 0.45 | 2 ± 0.22 | – | –
31 | KIYDSPCLPEAEAMFAINADGVGD [RAD51] | 4.71 ± 0.19 | 4.65 ± 0.38 | – | –
32 | EAITDEERAPTATFHDSKHNIVHV [WDFY2] | 4.72 ± 0.13 | 4.63 ± 0.3 | – | –
33 | GDVCYADVYRDGTGVVEFVRKEDM [SRSF1] | 4.22 ± 0.26 | 4.37 ± 0.042 | – | –
34 | GIENEEDTSKQKKMETMYPFIVTL [ZNF449] | 2.39 ± 0.38 | 2.36 ± 0.1 | – | –
35 | AERYKLERLAEAEKSQLIMQAEAE [FLOT1] | 5.29 ± 0.25 | 5 ± 0.28 | – | –
36 | KAEGGEEDSLGCLTADTKEVTASQ [IRX6] | 5.49 ± 0.22 | 5.48 ± 0.24 | – | –
37 | WVGFDDVESFKTKVSYLKQKGLGG [CHIT1] | 2.36 ± 0.33 | 2.69 ± 0.36 | – | –
38 | CSSKRSSIPLMGFEFEVRVCDSCH [WDFY2] | 2.24 ± 0.39 | 2.15 ± 0.34 | – | –
39 | ELSKDAQASAAPAAPLPERNSLSA [SLC29A1] | 5.15 ± 0.12 | 5.05 ± 0.27 | – | –
40 | QGMIQLALSGASQPGPSGAPAQRA [RETREG3] | 4.26 ± 0.1 | 4.32 ± 0.22 | – | –
41 | EQGEPLWTLEDEIHSPAHPEIEKA [ZNF649] | 5.44 ± 0.44 | 5.57 ± 0.22 | – | –
42 | PFWEVLVRSTETVERDNMEEDNVE [HDAC6] | 5.27 ± 0.086 | 5.27 ± 0.13 | – | –
43 | HLKRHFMFRNHLCLVFELLSYNLY [DYRK1B] | 3.34 ± 0.23 | 3.29 ± 0.88 | – | –
44 | GPLGDCLRDWEDLQQDFQNIQETH [TMEM120A] | 4.63 ± 0.31 | 4.41 ± 0.32 | – | –
45 | GGPADLAGLEDEDVIIEVNGVNVL [PDZK1] | – | 4.46 ± 0.32 | – | –
46 | EDYSRDEDHIAHIIELLGSIPRHF [SRPK2] | 2.62 ± 0.13 | 2.85 ± 0.31 | – | –

Row | Sequence | protein stability index [1] | protein stability index [2] | protein stability index [3] | protein stability index [4]
47 | VLVKDNGLGCKDLDLIFHVALPTE [TENT5C] | 2.58 ± 0.57 | 2.82 ± 0.73 | – | –
48 | KIIFRVGLVLLKHALGSPEKVKAC [TBC1D10A] | 2.77 ± 0.43 | 2.76 ± 0.19 | – | –
49 | NAGSYIPSYTSWYPSAHQEAMQQP [DLX1] | 2.76 ± 0.16 | 2.84 ± 0.32 | – | –
50 | EKALQVLVDQSKKANSPLKGHERT [VPS39] | 4.06 ± 0.21 | 4.48 ± 0.26 | – | –
51 | PAAPFDKKCGRENWTVAFAPDGSY [WSB1] | 2.63 ± 0.33 | 2.86 ± 0.13 | – | –
52 | TSIGDGPLSSDIQVITQTGVPGQP [PTPRD] | 4.6 ± 0.22 | 4.76 ± 0.19 | – | –
53 | PPWKEAFRQRCLERMRNSRDRLLN [RPAIN] | 2.66 ± 0.18 | 2.75 ± 0.33 | – | –
54 | LVQVTLLDTVELATYCVRTFALYK [PTPRD] | 3.1 ± 0.49 | 2.97 ± 0.81 | – | –
55 | DKILALVPETIHDELQQSFQKSHN [PRIM1] | 3.85 ± 0.42 | 3.93 ± 0.47 | – | –
56 | SKRMGPMTVVRMDASVQPGPFRTL [RHOBTB1] | 2.76 ± 0.14 | 2.91 ± 0.48 | – | –
57 | LTAFICFLVFILNAGLVWFFPWRE [MFSD9] | 2.23 ± 0.42 | 2.11 ± 0.51 | – | –
58 | CHSFAAAADGPTVCCNPYHFSRLC [SMAD6] | 2.4 ± 0.35 | 2.22 ± 0.2 | – | –
59 | RFTTSKLQSFEDLASISTYGFRGE [MLH1] | 3.24 ± 0.47 | 3.12 ± 0.36 | – | –
60 | ENIQDITVNIHRLHVKRSMGWKKA [ZMYND11] | 2.98 ± 0.26 | 3.22 ± 0.49 | – | –
61 | FEHEMEESKKNRVEINDLDPEVFK [SPOPL] | 4.99 ± 0.39 | 5.02 ± 0.32 | – | –
62 | AGGHLAVVELLLAHGADPTHRLKD [ANKRD17] | 1.95 ± 0.18 | 2.11 ± 0.32 | – | –
63 | LRGQVGGEINVEMDAAPGVDLSRI [KRT17] | 3.97 ± 0.15 | 3.92 ± 0.16 | – | –
64 | RNPGPGRHRLITQVYLSHTAWTEA [INTS4] | 2 ± 0.23 | 2.29 ± 0.35 | – | –
65 | EVGDPAPLGAGNLGPELIKESNAN [DPCD] | 5.31 ± 0.31 | 5.28 ± 0.1 | – | –
66 | RGRHEQSPTSRPRKVSSLPPRSC [C22orf15] | – | – | 3.06 ± 0.81 | 3.5 ± 0.85
67 | KENEMMKSHVMDQAINNAINYLGA [IKZF1] | 3.24 ± 0.089 | 2.87 ± 0.3 | – | –
68 | KEEVRAALEQREQDAVDQVKVIMD [TRIM29] | 5.23 ± 0.36 | 5.39 ± 0.13 | – | –
69 | DFDYNAIDNANRILGPAYFVTYVF [PKD2L1] | 2.73 ± 0.6 | 2.66 ± 0.59 | – | –

Row | Sequence | protein stability index [1] | protein stability index [2] | protein stability index [3] | protein stability index [4]
70 | TKHIHITQATETTTTRHKRTANPS [CLINT1] | 4.6 ± 0.19 | 4.77 ± 0.13 | – | –
71 | CTNIFYEEENPGGCEDEYLVNPTC [ZER1] | 4.31 ± 0.2 | 4.36 ± 0.33 | – | –
72 | LALCPANHAPLREQGAIPRLVQLL [CTNNB1] | 2.39 ± 0.21 | 2.59 ± 0.21 | – | –
73 | NCLGIRAFADTHSCRELLRIADKF [KLHL20] | 2.3 ± 0.36 | 2.2 ± 0.18 | – | –
74 | SPDDPESVKIIFKLPNDSRVERRF [FAF2] | 3.36 ± 0.23 | 3.46 ± 0.24 | – | –
75 | EEAAMQKCLVTEAQTLLRLSGVQR [RSAD1] | 3.51 ± 0.15 | 3.52 ± 0.35 | – | –
76 | KHKRQMQDPQLHSPFSGSLHAPPA [VENTX] | 3.98 ± 0.28 | 3.83 ± 0.25 | – | –
77 | DVMLEELSLLTNRGSKMFKLRQMR [MYOZ1] | 2.48 ± 0.19 | 2.67 ± 0.29 | – | –
78 | HFHRTLKEACDQHGPDLYPKFKKW [CPOX] | 2.49 ± 0.21 | 2.75 ± 0.14 | – | –
79 | EDLLQQMLERRYTPYPNLYPDQSP [CLCN6] | 3.28 ± 0.24 | 3.29 ± 0.15 | – | –
80 | YTTEFHELEKIGSGEFGSVFKCVK [WEE1] | 2.49 ± 0.85 | 3 ± 0.47 | – | –
81 | ETEDVDYGETDFHKQDGKAGLFSQ [TMEM40] | 5.3 ± 0.27 | 5.36 ± 0.2 | – | –
82 | TIPASLDLSPLLGFWQLPPPATQN [PLAGL1] | 2.74 ± 0.15 | 2.96 ± 0.32 | – | –
83 | TCSICRRNFSRRSSLLRHQKLHL [ZNF75A] | – | – | 3.65 ± 0.23 | 4.06 ± 0.43
84 | HTPAGAAVSAMKCGLLPISPEALS [ADD1] | 3.13 ± 0.25 | 3.29 ± 0.32 | – | –
85 | NTRNYEGQTPLAVSISISGSSRPC [ASB7] | 3.23 ± 0.2 | 3.5 ± 0.27 | – | –
86 | CRIQDLCAMEDHNCEQLCVNVPGS [MATN2] | 3.01 ± 0.44 | 2.77 ± 0.32 | – | –
87 | AQNREPESVEQLESRIVEQENAIQ [SNX8] | 5.54 ± 0.063 | 5.52 ± 0.19 | – | –
88 | KTIDLGAAAHYTGDKASPDQNAST [CLINT1] | 5.26 ± 0.31 | 5.41 ± 0.49 | – | –
89 | IRPVAGYLSPRDFLSGLAFRVFHC [TPH1] | 2.1 ± 0.13 | 2.12 ± 0.1 | – | –
